Usually Kd stands for the constant that tells how readily two partners part at equilibrium.

The target in the first experiment is biotinylated bovine FI (bovine). In words: BLI; Octet RED96; biotinylated bovine FI (150 nM) on streptavidin biosensors; PmSLP-1 as analyte at 0, 5, 16, 50, 160, 500, 1600 nM; 30 °C; PBS pH 7.4, 0.01% Tween 20; steady-state analysis, one-site model.
Conditions: not given
Background: Biolayer interferometry detects binding as a change in optical thickness at a sensor tip.
Substance PmSLP-1^15-318 (domain or fragment) gave a Kd of 27 nM.

The target in the next experiment is biotinylated bovine FI. Description: biolayer interferometry. The settings on record: n = 3; parent: 27 ± 3 nM.
For PmSLP-1^15-318 I133D, the Kd stood at 43 nM.

As to PmSLP-1^15-318 D121A, the Kd amounted to 117 nM.

For the substance PmSLP-1^15-318 D210A, the Kd worked out at 272 nM.

As to PmSLP-1^15-318 E132R, the Kd is 28 nM.

With PmSLP-1^15-318 R167A, the Kd turned out to be 107 nM.

Take PmSLP-1^15-318 L127D: the Kd came to 85 nM.

Take PmSLP-1^15-318 K236E: the Kd was 32 nM.

For PmSLP-1^15-318 D124R, the Kd is 53 nM.
